Kd data for one molecule are collected here from paper PMC3460959.

Where two headings read alike, the source gives them in different places.

The target in assay [1] is Substance P (FAM-SP) (Homo sapiens), P20366.
Assay [2] shares this target. The source holds these as a separate data set.

Sequence of Substance P (FAM-SP) (Homo sapiens), P20366 (P20366 whole entry, looked up): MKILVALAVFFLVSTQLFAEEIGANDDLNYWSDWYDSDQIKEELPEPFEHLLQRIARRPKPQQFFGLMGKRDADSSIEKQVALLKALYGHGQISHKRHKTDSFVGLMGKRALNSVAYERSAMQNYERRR

B1: Neurokinin 1 receptor (NK1R), P25103 (protein)
chain: MDNVLPVDSDLSPNISTNTSEPNQFVQPAWQIVLWAAAYTVIVVTSVVGNVVVMWIILAHKRMRTVTNYFLVNLAFAEASMAAFNTVVNFTYAVHNEWYYGLFYCKFHNFFPIAAVFASIYSMTAVAFDRYMAIIHPLQPRLSATATKVVICVIWVLALLLAFPQGYYSTTETMPSRVVCMIEWPEHPNKIYEKVYHICVTVLIYFLPLLVIGYAYTVVGITLWASEIPGDSSDRYHEQVSAKRKVVKMMIVVVCTFAICWLPFHIFFLLPYINPDLYLKKFIQQVYLAIMWLAMSSTMYNPIIYCCLNDRFRLGFKHAFRCCPFISAGDYEGLEMKSTRYLQTQGSVYKVSRLETTISTVVGAHEEEPEDGPKATPSSLDLTSNCSSRSDSKTMTESFSFSSNVLS
What is called Kd is the constant that tells how readily two partners part at equilibrium. Turning to B1, the Kd in assay [1] amounted to 83 nM; in assay [2] it was 34 nM.
